Here are results for 125 sequences from the supplement of paper PMC9112550, “Optimization of the antimicrobial peptide Bac7 by deep mutational scanning” (BMC Biology, 2022).
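Further: peptides expressed intracellularly from a pBAD plasmid library in pooled LB shake-flask culture, induced with 0.3% L-arabinose, DNA abundance read by NGS, three biological replicates, DESeq2 with apeglm shrinkage.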

The data set has as its system Escherichia coli TOP10. In words: shrunken log2 fold change of peptide-encoding DNA abundance (4.5 h post-induction vs induction); higher = less antimicrobial activity (less host growth inhibition). The note with it: time post-induction: 4.5 h; library: site-saturation at positions 5, 18, 19, 20.
On to RRIRCRPPRLPRPRPRPLSGPRP, for which the “shrunken log2 fold change” value was -0.0515.
For RRIRPRPPRLPRPRPRPKKAPRP, the “shrunken log2 fold change” value turned out to be 0.129.
For RRIRPRPPRLPRPRPRPVIAPRP the value was 0.0792.
For RRIRKRPPRLPRPRPRPLDFPRP the value was 0.188; for RRIRRRPPRLPRPRPRPWIVPRP, 3; for RRIRHRPPRLPRPRPRPNQMPRP, -0.0904.
With RRIRVRPPRLPRPRPRPGWAPRP the figure was 0.228; with RRIRLRPPRLPRPRPRPDPAPRP, 0.752.
As to RRIRPRPPRLPRPRPRPKRPPRP, the “shrunken log2 fold change” value was determined as 0.465.
As to RRIRVRPPRLPRPRPRPTFVPRP, the “shrunken log2 fold change” value turned out to be 0.0147.
For RRIRARPPRLPRPRPRPPALPRP the value was 0.415.
With RRIRERPPRLPRPRPRPMDWPRP the figure was 0.0151; with RRIRMRPPRLPRPRPRPHNFPRP, -0.0303.
Regarding RRIRCRPPRLPRPRPRPMTIPRP, the “shrunken log2 fold change” value is -0.128.
With RRIRGRPPRLPRPRPRPVWQPRP the figure was 0.174; with RRIRSRPPRLPRPRPRPECLPRP, 0.18.
With RRIRNRPPRLPRPRPRPASPPRP the figure was 0.154; with RRIRYRPPRLPRPRPRPMCPPRP, -0.217.
For RRIRKRPPRLPRPRPRPYRKPRP the value was 0.0413; for RRIRQRPPRLPRPRPRPDLTPRP, 0.00424.
Consider RRIRPRPPRLPRPRPRPYQQPRP, for which the “shrunken log2 fold change” value was -0.139.
For RRIRARPPRLPRPRPRPALDPRP the value was 0.756; for RRIRYRPPRLPRPRPRPASMPRP, 0.0167.
For RRIRYRPPRLPRPRPRPKIHPRP, the “shrunken log2 fold change” value is -1.18.
With RRIRARPPRLPRPRPRPQINPRP the figure was -0.0458; with RRIRERPPRLPRPRPRPHAEPRP, -0.0335; with RRIRERPPRLPRPRPRPTQRPRP, 0.0475.
With RRIRCRPPRLPRPRPRPAPYPRP, the “shrunken log2 fold change” value was determined as 0.0992.
For RRIRRRPPRLPRPRPRPFEPPRP the value was 0.152; for RRIRRRPPRLPRPRPRPSIVPRP, 0.26; for RRIRWRPPRLPRPRPRPTPFPRP, 0.153.
In the case of RRIRERPPRLPRPRPRPTGAPRP, the “shrunken log2 fold change” value was determined as 0.316.
For the sequence RRIRHRPPRLPRPRPRPCWPPRP, the “shrunken log2 fold change” value is -0.106.
For RRIRIRPPRLPRPRPRPWIWPRP the value was -0.109.
Turning to RRIRWRPPRLPRPRPRPTMYPRP, the “shrunken log2 fold change” value amounted to 0.00431.
As to RRIRMRPPRLPRPRPRPGSGPRP, the “shrunken log2 fold change” value was 1.34.
For RRIRKRPPRLPRPRPRPHIPPRP, the “shrunken log2 fold change” value is -0.247.
With RRIRYRPPRLPRPRPRPGSAPRP the figure was -0.24; with RRIRARPPRLPRPRPRPTPWPRP, 0.563; with RRIRYRPPRLPRPRPRPINIPRP, -1.21.
With RRIRARPPRLPRPRPRPMSPPRP the figure was 0.342.
With RRIRSRPPRLPRPRPRPSSCPRP the figure was -0.271; with RRIRCRPPRLPRPRPRPKCKPRP, 0.0809; with RRIRFRPPRLPRPRPRPFAFPRP, -0.239.
With RRIRPRPPRLPRPRPRPWDGPRP, the “shrunken log2 fold change” value is -0.0681.
Regarding RRIRKRPPRLPRPRPRPMYAPRP, the “shrunken log2 fold change” value is -0.145.
For RRIRVRPPRLPRPRPRPVAGPRP the value was 0.0748; for RRIRKRPPRLPRPRPRPGWMPRP, 0.269.
As to RRIRARPPRLPRPRPRPEQYPRP, the “shrunken log2 fold change” value is -0.0243.
For RRIRNRPPRLPRPRPRPHQVPRP the value was 0.0294; for RRIRKRPPRLPRPRPRPTYSPRP, -0.191.
For RRIRWRPPRLPRPRPRPPWLPRP the value was 0.526; for RRIRERPPRLPRPRPRPDIGPRP, -0.0541; for RRIRKRPPRLPRPRPRPHLQPRP, 0.224.
With RRIRSRPPRLPRPRPRPNSGPRP the figure was 0.0845; with RRIRCRPPRLPRPRPRPRPHPRP, 0.211; with RRIRHRPPRLPRPRPRPPGNPRP, 0.133.
Regarding RRIRGRPPRLPRPRPRPQETPRP, the “shrunken log2 fold change” value was -0.0108.
RRIRERPPRLPRPRPRPYFFPRP: the “shrunken log2 fold change” value was -0.587.
With RRIRWRPPRLPRPRPRPWYRPRP the figure was -0.174; with RRIRNRPPRLPRPRPRPCAQPRP, 0.127; with RRIRLRPPRLPRPRPRPNYGPRP, -0.0135.
Turning to RRIRDRPPRLPRPRPRPRWDPRP, the “shrunken log2 fold change” value is 0.196.
Turning to RRIRQRPPRLPRPRPRPQDHPRP, the “shrunken log2 fold change” value was -0.408.
For RRIRQRPPRLPRPRPRPWYPPRP the value was -0.278; for RRIRSRPPRLPRPRPRPFLRPRP, -0.0915.
For the sequence RRIRERPPRLPRPRPRPMGNPRP, the “shrunken log2 fold change” value worked out at 0.0248.
With RRIRIRPPRLPRPRPRPEAAPRP the figure was 0.538; with RRIRKRPPRLPRPRPRPCADPRP, 0.006; with RRIRCRPPRLPRPRPRPQIIPRP, -0.853.
With RRIRRRPPRLPRPRPRPYGGPRP the figure was -0.326.
With RRIRLRPPRLPRPRPRPGQAPRP the figure was 0.39; with RRIRARPPRLPRPRPRPSHPPRP, -0.0758; with RRIRTRPPRLPRPRPRPVTIPRP, -0.0419.
As to RRIRDRPPRLPRPRPRPMPEPRP, the “shrunken log2 fold change” value worked out at 0.0845.
With RRIRQRPPRLPRPRPRPDFIPRP the figure was -0.345; with RRIRYRPPRLPRPRPRPKGAPRP, 0.194.
With RRIRKRPPRLPRPRPRPSKTPRP the figure was 0.0486.
On to RRIRSRPPRLPRPRPRPWFPPRP, for which the “shrunken log2 fold change” value was -0.331.
For RRIRTRPPRLPRPRPRPLYQPRP the value was -0.375; for RRIRIRPPRLPRPRPRPIATPRP, -0.471; for RRIRQRPPRLPRPRPRPQFEPRP, -0.0143.
With RRIRMRPPRLPRPRPRPAYLPRP the figure was 0.0142; with RRIRERPPRLPRPRPRPTSTPRP, -0.319; with RRIRVRPPRLPRPRPRPWEMPRP, -0.00133.
With RRIRSRPPRLPRPRPRPTMAPRP the figure was 0.173; with RRIRQRPPRLPRPRPRPTALPRP, -0.0491; with RRIRCRPPRLPRPRPRPMWPPRP, 0.481.
For RRIRFRPPRLPRPRPRPARMPRP, the “shrunken log2 fold change” value was 0.296.
With RRIRKRPPRLPRPRPRPQMDPRP the figure was 0.618.
With RRIRVRPPRLPRPRPRPGGRPRP the figure was 0.317.
With RRIRHRPPRLPRPRPRPKMGPRP the figure was -0.00141.
Turning to RRIRQRPPRLPRPRPRPGAYPRP, the “shrunken log2 fold change” value was -0.506.
With RRIRVRPPRLPRPRPRPHHQPRP the figure was -0.427.
RRIRNRPPRLPRPRPRPAFYPRP: the “shrunken log2 fold change” value was -0.065.
With RRIRARPPRLPRPRPRPTNHPRP the figure was -0.181; with RRIRHRPPRLPRPRPRPGMIPRP, -0.187.
As to RRIRGRPPRLPRPRPRPFMNPRP, the “shrunken log2 fold change” value is -0.116.
On to RRIRYRPPRLPRPRPRPKCNPRP, for which the “shrunken log2 fold change” value is -0.533.
For the sequence RRIRSRPPRLPRPRPRPLIFPRP, the “shrunken log2 fold change” value is -0.403.
For RRIRRRPPRLPRPRPRPMYYPRP the value was -0.232.
With RRIRIRPPRLPRPRPRPMPAPRP the figure was 0.0451; with RRIRGRPPRLPRPRPRPMIPPRP, -0.219.
For RRIRKRPPRLPRPRPRPHGLPRP the value was 0.0425.
As for RRIRCRPPRLPRPRPRPTNNPRP, the “shrunken log2 fold change” value was -0.619.
In the case of RRIRNRPPRLPRPRPRPAATPRP, the “shrunken log2 fold change” value was 0.285.
With RRIRVRPPRLPRPRPRPSHTPRP the figure was -0.0229; with RRIRIRPPRLPRPRPRPWHRPRP, 0.0544; with RRIRKRPPRLPRPRPRPDQGPRP, -0.0154.
With RRIRVRPPRLPRPRPRPKPCPRP the figure was 0.205; with RRIRGRPPRLPRPRPRPFMRPRP, 0.567; with RRIRKRPPRLPRPRPRPYMNPRP, -0.505.
With RRIRDRPPRLPRPRPRPDMCPRP the figure was -0.0138; with RRIRYRPPRLPRPRPRPKMPPRP, -0.206; with RRIRDRPPRLPRPRPRPAQLPRP, -0.0667.
Take RRIRQRPPRLPRPRPRPYTFPRP: the “shrunken log2 fold change” value was -0.0307.
In the case of RRIRHRPPRLPRPRPRPAKHPRP, the “shrunken log2 fold change” value is -0.0767.
With RRIRNRPPRLPRPRPRPKGDPRP the figure was 0.0687; with RRIRQRPPRLPRPRPRPVQHPRP, -0.0755.
For RRIRERPPRLPRPRPRPLGSPRP the value was -0.0249; for RRIRARPPRLPRPRPRPVTSPRP, 0.293.
For RRIRYRPPRLPRPRPRPAKFPRP the value was -0.331; for RRIRIRPPRLPRPRPRPRMVPRP, 0.0922; for RRIRWRPPRLPRPRPRPRGGPRP, 0.984.
Turning to RRIRSRPPRLPRPRPRPCYSPRP, the “shrunken log2 fold change” value was -0.839.
